Test results taken from article PMC3169402, “Structure of fructose bisphosphate aldolase from Encephalitozoon cuniculi” (Acta Crystallographica Section F: Structural Biology and …, 2011).

Target: the molecule itself
Assay: crystal structure; sitting-drop vapour diffusion at 290 K, Bis-Tris propane pH 6.5, PEG 3350; phosphate-bound (2.00 Å) and FBP-bound (2.37 Å) forms, space group C222(1), data at 100 K

B1: Fructose bisphosphate aldolase from Encephalitozoon cuniculi (enzyme, UniProt Q8SSM8 1-338, looked up)
chain: MMDCDHLLRLGMTAKKILENGKGILAADETPKTLGRRFEKLGITNTEENRRKFREILFSTKGIERYIGGVILNQETFEQTSGSGVPLTELLKKKGIEIGIKLDKGLIDYKEKEKISVGLEDLDLRCKSSAFKDATFAKWRSLFYFYDGIPSEDCINENCSILAKYAIICQKNGLVPIVEPEVFLEGDYSMKRSYEVTRQILSTLMKYLNYELVYIPGVLIKASYVTSGQLSNEKYTPKKVATFTLRALLSTIPCGIPGIVFLSGGHGSEDAIGFLNAINMERGCRTWSLSFSFARALTDGVLETWRGDDSNIEEAQKILLETSFKACRGAEGKLWDQE
notes: Fructose bisphosphate aldolase (class I), Encephalitozoon cuniculi, UniProt Q8SSM8, full-length protein, residues 1 to 338; In PDB 3mbf Lys221 forms a Schiff base with fructose 1,6-bisphosphate; also called EcFBPA; FBPA; source: E. coli BL21(DE3)R3 Rosetta, purified (HisTrap IMAC, Superdex 75 SEC)
  stoichiometry N: 2
